2 substances from patent EP0256654B1 can be followed below.

Assay [1] has as its target partially purified 17-1A antigen (isolated from SW116 cells) (human) (UniProt P16422). The assay can be described thus: competition with 125I murine 17-1A on plates coated with partially purified 17-1A antigen; 50% binding value.
Assay [2] has the same target. The assay is described as follows: cold murine 17-1A competing with 125I murine 17-1A on plates coated with partially purified 17-1A antigen; 50% binding value.

As usually defined, the IC50 is the concentration at which inhibition is half-maximal. Read a high IC50 as lower potency. Regarding “G1K 17-1A Chimeric IgG (from UniProt P01857 1-330) (antibody)”, in assay [1], the IC50 was found to be 0.3 µg/mL. Regarding murine monoclonal antibody 17-1A, in assay [2], the IC50 came out at 0.16 µg/mL.
